Data: patent publication US20220242958A1, “BISPECIFIC NANOBODIES” (Ablynx N.V., priority 2013, published 2022)
“Also recorded” adds a separate entry of the source.

T1: recombinant IL-3Rα ectodomain (Homo sapiens, UniProt P26951)
T1 construct: Immobilisation of recombinant IL-3Rα ectodomain (Sino Biologicals) was done until 761 RU; purchased Sino Biologicals
T1 sequence (P26951 19-305 limits assumed): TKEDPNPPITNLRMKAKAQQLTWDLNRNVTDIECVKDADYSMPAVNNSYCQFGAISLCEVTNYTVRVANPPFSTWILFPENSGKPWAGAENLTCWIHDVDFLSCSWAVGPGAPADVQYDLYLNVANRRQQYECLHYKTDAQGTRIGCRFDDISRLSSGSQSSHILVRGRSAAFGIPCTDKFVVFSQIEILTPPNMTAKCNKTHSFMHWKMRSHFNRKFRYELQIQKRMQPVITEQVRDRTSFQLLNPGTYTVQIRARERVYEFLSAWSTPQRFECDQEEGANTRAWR

B1: CD4#8: anti-CD4 Nanobody, SEQ ID NO: 25 (protein)
VHH: EVQLVESGGGSVQPGGSLTLSCGTSGRTFNVMGWFRQAPGKEREFVAAVRWSSTGIYYTQYADSVKSRFTISRDNAKNTVYLEMNSLKPEDTAVYYCAADTYNSNPARWDGYDFRGQGTQVTVSS
B2: 238D4: full blocking control CXCR4 Nanobody (protein)
VHH: EVQLMESGGGLVQAGGSLRLSCAASGRTFNNYAMGWFRRAPGKEREFVAAITRSGVRSGVSAIYGDSVKDRFTISRDNAKNTLYLQMNSLKPEDTAVYTCAASAIGSGALRRFEYDYSGQGTQVTVSS
B3: CD123#1: anti-IL-3Ra (CD123) Nanobody, SEQ ID NO: 15 (protein)
VHH: EVQLVESGGGLVQAGGSLRLSCAASGSIFSGNVMGWYRRQAPGKEREWVAAIASGGSIYYRDSVKGRFTISRDNAKNTVYLQMNSLKPEDTAVYYCNSHPPTLPYWGLGTQVTVSS
B4: CD123#2: anti-IL-3Ra (CD123) Nanobody, SEQ ID NO: 14 (protein)
VHH: EVQLVESGGGSVQAGGSLRLSCTTSGRALNMYVMGWFRQAPGNEREFVAATSSSGGSTSYPDSVKGRFTISRDNAKNTVYLQMNSLKPEDTAAYRCAASPYVSTPTMNILEEYRYWGLGTQVTVSS
B5: IL12Rb1#30: IL-12Rβ1 specific ligand competing Nanobody (protein)
VHH: EVQLVESGGGLVQTGGSLRLSCAASGRTPRLVAMGWFRQTPGKEREFVGEIILSKGFTYYADSVKGRFTISRVNAKNTITMYLQMNSLKSEDTAVYYCAGRQNWSGSPARTNEYEYWGQGTLVTVSS

Assays:
cytotoxic CD8+ T cells = assay: Binding to isolated CD8+ T cells (FACS); parameters: species or system human; details: Nanobodies at 250 nM
Protocol: The pool of activated T cells comprises both CD4+ T cells and CD8+ T cells. To confirm the specificity of the anti-CD4 Nanobody and to exclude binding to CD4-negative cells, binding was assessed to cytotoxic CD8+ T cells isolated from human PBMCs using the CD8+ T Cell Isolation Kit (Miltenyi Biotech, 130-096-495), resulting in 94% purity of CD8+ cells. Binding specificity experiments were carried out using Nanobodies at 250 nM. […] Similar data were obtained for the IL12Rβ2 and IL23R Nanobodies.

[1] = target: T2, recombinant human CD4 / HIV1 gp120 interaction (Homo sapiens, UniProt P01730); assay: gp120 - CD4 competition ELISA; assay type: binding; details: 500 nM Nanobody
T2 construct: purchased Invitrogen
Protocol: Therefore a panel of CD4 Nanobodies was analysed for the capacity to block the interaction with the viral gp120 protein. Briefly, CD4 Nanobodies were analysed for the ability to compete with gp120 protein binding to recombinant CD4 in ELISA. Briefly, plates were coated with 20 ug/mL sheep anti-gp120 antibodies. lug/mL of HIV1 gp120 protein was captured for 1 hr at room temperature. Biotinylated recombinant human CD4 (Invitrogen) at 0.5 μg/mL was pre-incubated with 500 nM anti-CD4 Nanobodies, or control antibodies mouse anti-CD4 mAb B-A1 and F5 (Diaclone) and rabbit anti-CD4 pAb (ImmunoDiagnostic Inc) for 1hr, after which mixture was transferred to the coated plates and incubated for 1 hr. Detection of bound CD4 was done with Extravidin-peroxidase conjugate. […] Characteristics of Nanobody CD4 are found in Table 2.1.

[2] = system: CD8+/CD4− gated and CD4+ gated T cells; assay: Multi-colour FACS on TH1 activated T cells gated for CD8 or CD4; assay type: binding, human; details: donor D838; anti-flag-APC detection
Protocol: To elucidate if CD4-IL12R bispecific polypeptides preferentially bind to the CD4+/IL12R+ TH1 cell subset within the pool of T cells, Nanobody binding was analysed to a pool of activated T cells gated for either CD8 (detected by Anti-hu CD8 PE-Cy7 conjugated monoclonal antibody (BD 557746) or CD4 (detected by Anti-hu CD4 alexa Fluor 488-conjugated polyclonal antibody (R&D FAB8165G) in a multi-colour FACS experiment. Nanobody binding to the CD8+/CD4− gated cells and to CD4+ gated cells was determined using anti-flag-APC (Prozyme PJ255) detection. In this experiment TH1 activated T cells from the same donor (D838) as shown in FIG. 3.6 were used.

[3] = target: T3, CXCR4 on Caki-CXCR4 cells (Homo sapiens, UniProt P61073); assay: Biotinylated SDF-1 displacement on Caki-CXCR4 cells (flow cytometry); assay type: binding; details: 30 nM biotinylated SDF-1; read-out: Ligand competition Biotin-SDF-1 IC50
T3 construct: expressed in transfected cells; host or cells: Caki-CXCR4
Protocol: CXCR4 Nanobodies were analysed for their ability to compete with the ligand CXCL12 (or SDF-1a) for receptor binding, by displacement of biotinylated SDF-1 on Caki-CXCR4 cells in flow cytometry. To this end serial dilutions of Nanobodies were incubated with 30 nM of biotinylated SDF-1 (R&D Systems Fluorokine kit) on cells, after which ligand binding was visualised using extravidin-PE. The biotin-SDF-1 competitor concentration used in this assay was below the EC50 value obtained in dose-titration, where IC50 values should reflect the Ki.

[4] = target: T4, CXCR4 on Jurkat E6-1 cells (Homo sapiens, UniProt P61073); assay: CXCL12/SDF-1a induced chemotaxis of Jurkat E6-1 cells; assay type: cell-based; details: monovalent CXCR4 Nanobodies, Table 4; read-out: Chemotaxis Jurkat IC50
T4 construct: endogenous in cells; host or cells: Jurkat E6-1
Protocol: To verify if bispecific CXCR4-IL3Ra polypeptides show increased affinity and potency on cells expressing both receptors, a CXCR4-dependent functional assay was carried out. To this end SDF-1a dependent chemotaxis on Jurkat E6-1 (CXCR4+/IL3Ra−), and MOLM-13 cells (CXCR4+/IL3Ra+) was performed for direct comparison of cells expressing both or only one receptor. Since the functional blockade is only mediated via CXCR4, avidity by the simultaneous binding of the anti-IL3Ra Nanobody® is expected to translate into increased potency in inhibition of chemotaxis.
Bispecific polypeptides were analyzed for inhibition of CXCL12-induced chemotaxis on cells endogenously expressing CXCR4. As chemoattractant a concentration of 750 pM SDF-1a was used on 100,000 cells/well for the Jurkat cell line, and 500,000 cells/well for the MOLM-13 cell line. On each plate the corresponding monovalent CXCR4 Nanobody was included as reference, allowing to calculate the fold increase of the bispecific within each plate. As additional control 1:1 mixtures of monovalent Nanobodies were included. In Table 9 the respective IC50 values are shown (average of n=3 experiments).
To verify if bispecific CXCR4-IL-3Ra polypeptides show increased affinity and potency on cells expressing both receptors, a CXCR4-dependent functional assay was done. Since MOLM-13 cells express CD4 in conjunction with CXCR4 and CD123, the same experimental set-up was used as described for the CXCR4-CD123 bispecific Nanobodies (see: Example 1.5.5).
Dose-dependent inhibition of CXCL12-induced chemotaxis by the panel of bispecific CD4-CXCR4 Nanobodies was determined on Jurkat (CXCR4+/CD4 low), and Molm-13 cells (CXCR4++/CD4++). As reference anti-CXCR4 antibody 12G5 was included on each plate. […] Remarkably, bispecific constructs in the inverse orientation were able to block CXCR4 function, despite their reduced affinity for CXCR4 due to the unfavourable position, although the blockade was partial. The much larger potency increases observed with Nanobodies targeting the CD4 and CXCR4 combination is most likely related to the higher relative expression levels of CD4 compared to CD123 on the Molm-13 cells.

[5] = target: T5, CXCR4 (membrane extracts of Hek-CXCR4 cells) (Homo sapiens, UniProt P61073); assay: [125I]-CXCL12 radio-ligand displacement on membrane extracts of Hek-CXCR4 cells; assay type: binding
T5 construct: expressed in transfected cells; host or cells: Hek293 (membrane extracts)
Protocol: CXCR4 Nanobodies were analysed in radio-ligand displacement assay on membrane extracts of Hek-CXCR4 cells. The advantage of using the radiolabelled ligand is the increased sensitivity, and the low competitor concentration ensures the determination of Ki values (i.e. the real affinity constant) instead of measuring the IC50 value. This makes it possible to accurately determine the potencies of low affine Nanobodies, even though they may not reach full displacement.
Non-specific binding was determined in presence of 100 nM cold SDF-1. As controls full blocking CXCR4 Nanobodies 238D4 and 281A6 were included. The assay was performed three times, and average percentages of SDF-1 inhibition were calculated.

[6] = target: T3, CXCR4 on Caki-CXCR4 cells; assay: Binding of CXCR4 Nanobodies to Caki-CXCR4 cells
[7] = target: T1, recombinant IL-3Rα ectodomain; assay: SPR (ProteOn) on recombinant IL-3Rα ectodomain; assay type: binding
Protocol: The affinities of CD123 specific Nanobodies were further investigated via Surface Plasmon Resonance (SPR) at ProteOn. Immobilisation of recombinant IL-3Rα ectodomain (Sino Biologicals) was done until 761 RU. The Nanobodies were applied at a highest concentration of 1 μM, followed by a three-fold titration, covering 5 further concentrations ranging from 1 μM to 4.1 nM. These were then applied in a single injection cycle, utilising the ProteOn's specific one-shot kinetics approach for kinetic analysis. Evaluation of the association/dissociation data was performed by fitting a 1:1 interaction model (Langmuir binding model). […] For CD123 Nanobodies the obtained KD values correlated well with the apparent affinities retrieved by cell binding EC50 values (see Table 3).

HEK293T-wt cells = assay: FACS binding to non-transfected HEK293T-wt cells (specificity); parameters: species or system human; details: data not shown
Protocol: Nanobody binding to membrane associated human IL-3Rα was analysed on HEK293T cells transfected with pcDNA3.1-IL3Rα (NM_002183.2) and non-transfected cells. Surface expression was confirmed by FACS using IL-3Rα specific antibodies (R&D MAB301 and BD Pharminogen 554528), followed by goat anti-mouse PE (Jackson Immuno Research 115-115-164). Briefly, serial dilutions of Nanobodies were allowed to associate for 30 minutes at 4° C. in FACS buffer (PBS 1×+10% FBS+0.05% azide). Following this, cells were washed by centrifugation and probed with 6.7 nM anti-FLAG for 30 minutes at 4° C., to detect bound Nanobody. Detection was done with […] for 30 minutes at 4° C. Cells were washed and incubated with TOPRO3 to stain for dead cells, which are then removed during the gating procedure. The cells were then analysed via a BD FACSArray. The results are depicted in FIG. 1.2.

[8] = target: T6, human IL12Rβ1 extracellular domain Fc-fusion (Homo sapiens, UniProt P42701); assay: SPR (Biacore T100) on IL12Rβ1-Fc; assay type: binding
T6 construct: Fc-fusions of human IL12Rβ1, IL12Rβ2 and IL-23R extracellular domains; purchased R&D Systems #839-B1
Protocol: The precise binding affinities of the purified Nanobodies were determined in a multi-cycle kinetic analysis using Surface Plasmon Resonance analysis (Biacore T100) on Fc-fusions of human IL12Rβ1, IL12Rβ2 and IL-23R extracellular domains (R&D Systems, #839-B1, #1959-B2, #1400-IR). Sensorchips CM5 were immobilized with anti-hIgG antibody (GE Healthcare, BR-1008-39), after which receptors were captured at 5 μg/ml protein and contact time of 120 seconds. Running buffer used was HBS-EP+ (GE Healthcare, BR-1006-69) at 25° C., with a flow-rate of […]. For immobilization by amine coupling, EDC/NHS was used for activation and ethanolamine HCl for deactivation (Biacore, amine coupling kit). Nanobodies were evaluated at a concentration range between 1.37 nM and 3 μM. Nanobodies were allowed to associate for 2 min and to dissociate for 15 min at a flow rate of […]. In between injections, the surfaces were regenerated with a 3 min pulse of 3M MgCl2 and 2 min stabilization period. Evaluation of the association/dissociation data was performed by fitting a 1:1 interaction model (Langmuir binding model) by Biacore TWO software v2.0.3.

T3 sequence (P61073 whole entry): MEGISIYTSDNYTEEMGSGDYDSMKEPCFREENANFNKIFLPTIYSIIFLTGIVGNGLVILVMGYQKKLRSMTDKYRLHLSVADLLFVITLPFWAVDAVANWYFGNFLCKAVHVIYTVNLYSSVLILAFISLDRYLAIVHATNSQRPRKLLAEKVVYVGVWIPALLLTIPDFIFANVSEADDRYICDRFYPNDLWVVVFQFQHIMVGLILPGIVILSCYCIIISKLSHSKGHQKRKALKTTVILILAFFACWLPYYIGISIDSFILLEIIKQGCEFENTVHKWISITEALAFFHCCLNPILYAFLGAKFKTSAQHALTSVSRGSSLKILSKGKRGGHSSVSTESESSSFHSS
T5 sequence (P61073 whole entry): as above
T4 sequence (P61073 whole entry): as above

| Molecule | binding to isolated CD8+ T cells (cytotoxic CD8+ T cells) | binding to CD4+ gated and CD8+ gated T cells [2] | SPR - IL-3Ra ka [7] [M⁻¹ s⁻¹] | SPR - IL-3Ra kd [7] [s⁻¹] | binding to HEK293T-wt cells (HEK293T-wt cells) | further results |
| --- | --- | --- | --- | --- | --- | --- |
| B1 | No binding | strong binding to the CD4+ gated population; also recorded: only a low signal was observed to the CD8+ population |  |  |  | inhibition of gp120 - CD4 interaction [1]: inhibit the interaction with gp120 |
| B2 |  |  |  |  |  | IC50 [3]: 2.1 nM; IC50 [4]: 7.6 nM; efficacy of SDF-1 displacement ([5]; radio-ligand displacement): full efficacy; Ki ([5]; read-out: Ligand competition [125I]-SDF-1 Ki, 75 pM [125I]-CXCL12): 5.4 nM; EC50 [6]: 3.4 nM |
| B3 |  |  | 1e+06 | 0.00081 | lack of binding |  |
| B4 |  |  | 84000 | 0.0014 | lack of binding |  |
| B5 | did bind | low fluorescence signals to both CD4+ and CD8+ cells |  |  |  | Binding kinetics (SPR) ka (1/Ms), IL12Rβ1 [8]: 450000 M⁻¹ s⁻¹; Binding kinetics (SPR) kd (1/s), IL12Rβ1 [8]: 0.0015 s⁻¹ |
